Columns and labels:
[1] = molecular target: T1, human sucrase-isomaltase complex (hSI) receptor domain, amino acid residues 272-667, His-tag fusion protein (human), P14410; test: phage ELISA, coated hSI domain
[2] = molecular target: T1, human sucrase-isomaltase complex (hSI) …; test: phage ELISA, OD on hSI over OD on BSA
[3] = molecular target: T2, human D2H transporter receptor domain, amino acid residues 387-685, His-tag fusion protein (human), Q07837; test: phage ELISA, coated D2H domain
T2 chain: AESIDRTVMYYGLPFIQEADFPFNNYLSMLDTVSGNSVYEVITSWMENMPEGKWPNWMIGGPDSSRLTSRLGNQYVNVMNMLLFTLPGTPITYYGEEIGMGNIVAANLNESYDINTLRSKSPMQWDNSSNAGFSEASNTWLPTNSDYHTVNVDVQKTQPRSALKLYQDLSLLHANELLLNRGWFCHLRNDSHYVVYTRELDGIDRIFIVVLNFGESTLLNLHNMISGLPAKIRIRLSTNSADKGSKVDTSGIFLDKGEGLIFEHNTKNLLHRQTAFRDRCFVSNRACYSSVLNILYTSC

[4] = molecular target: T2, human D2H transporter receptor domain, …; test: phage ELISA, OD on D2H over OD on BSA

T1 sequence (P14410 272-667, one chain of several): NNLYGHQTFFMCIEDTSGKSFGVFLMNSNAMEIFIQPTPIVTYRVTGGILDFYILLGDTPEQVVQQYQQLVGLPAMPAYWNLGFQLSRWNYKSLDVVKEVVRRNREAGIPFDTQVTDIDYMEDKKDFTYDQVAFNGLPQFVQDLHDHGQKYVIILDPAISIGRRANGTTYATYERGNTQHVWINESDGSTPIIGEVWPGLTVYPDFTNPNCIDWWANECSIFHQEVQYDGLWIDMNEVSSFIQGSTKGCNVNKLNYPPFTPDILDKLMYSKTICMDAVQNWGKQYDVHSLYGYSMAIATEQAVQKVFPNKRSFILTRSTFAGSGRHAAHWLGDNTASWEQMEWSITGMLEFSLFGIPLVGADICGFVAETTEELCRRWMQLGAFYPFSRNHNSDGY

Binder | OD [1] [OD 650 nm] | hSI/BSA [2] | OD [3] [OD 650 nm] | D2H/BSA [4]
SPRSFWPVVSRHESFGISNYLGCGYRTCISGTMTKSSPIYPRHS (modifications not checked) [phage S21] | 0.845 | 9 |  | 
SWSSWNWSSKTTRLGDRATREGCGPSQSDGCPYNGRLTTVKPRT (modifications not checked) [phage DCX36] |  |  | 0.293 | 5

— patent US7135457
